Maximum inhibition of HRG binding, HRG stimulation of p180 tyrosine phosphorylation in MCF7 cells and inhibition of cell proliferation of SK-BR-3 cells (crystal violet) data for two substances are collected here from US20020035736A1.

Assay [1] has as its target native human HER2 (human) (UniProt P04626). The assay is described as follows: inhibition of 125I-rHRGβ1 binding to MCF7 monolayers on ice; labeled ligand rHRGβ1.
For assay [2] the target is unchanged. The assay is described as follows: cell-based or functional assay.

In turn, murine monoclonal antibody 2C4 yielded a maximum inhibition of HRG binding in assay [1] of 74%. Besides, the HRG stimulation of p180 tyrosine phosphorylation in MCF7 cells in assay [2] is < 25 % of control.
In assay [2], murine monoclonal antibody 4D5 gave an inhibition of cell proliferation of SK-BR-3 cells (crystal violet) of 66%.
